The source of these data is patent US20250084142A1 (INTARCIA THERAPEUTICS, published 2025).

Starred links: 1 amine or outer side, 2 acyl side, 3 side chain; linkers in the order of their positions; H or OH if unused. Positions of bridges follow the written chain, without caps; N, C: chain ends. Non-standard residues stand in square brackets, D forms with d. Groups on a side chain read outwards from the residue. No end group written: not given here. *: point of attachment. dpeg = —[CO(CH2)O(CH2)2O(CH2)NH]— spacer, O=C(COCCOCN[*:1])[*:2]; C20 diacid = O=C(O)CCCCCCCCCCCCCCCCCCC(=O)*; C19 diacid = O=C(O)CCCCCCCCCCCCCCCCCC(=O)*; γGlu = O=C(O)[C@H](CCC(=O)[*:2])N[*:1]

The labels stand for the following.
T1: NPY2R
T1 sequence (P49146 1-381, species assumed, looked up): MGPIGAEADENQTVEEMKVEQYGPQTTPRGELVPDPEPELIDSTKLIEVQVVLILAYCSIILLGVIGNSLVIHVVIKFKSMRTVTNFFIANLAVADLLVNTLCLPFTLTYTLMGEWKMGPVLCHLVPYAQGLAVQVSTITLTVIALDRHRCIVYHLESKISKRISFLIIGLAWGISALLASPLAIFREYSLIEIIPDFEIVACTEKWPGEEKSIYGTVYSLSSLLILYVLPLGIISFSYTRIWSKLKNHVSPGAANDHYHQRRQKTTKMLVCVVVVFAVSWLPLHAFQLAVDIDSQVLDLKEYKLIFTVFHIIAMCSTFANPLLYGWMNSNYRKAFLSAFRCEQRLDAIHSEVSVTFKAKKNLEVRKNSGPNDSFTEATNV

T2: NPY5R
T2 sequence (Q15761 1-445, species assumed, looked up): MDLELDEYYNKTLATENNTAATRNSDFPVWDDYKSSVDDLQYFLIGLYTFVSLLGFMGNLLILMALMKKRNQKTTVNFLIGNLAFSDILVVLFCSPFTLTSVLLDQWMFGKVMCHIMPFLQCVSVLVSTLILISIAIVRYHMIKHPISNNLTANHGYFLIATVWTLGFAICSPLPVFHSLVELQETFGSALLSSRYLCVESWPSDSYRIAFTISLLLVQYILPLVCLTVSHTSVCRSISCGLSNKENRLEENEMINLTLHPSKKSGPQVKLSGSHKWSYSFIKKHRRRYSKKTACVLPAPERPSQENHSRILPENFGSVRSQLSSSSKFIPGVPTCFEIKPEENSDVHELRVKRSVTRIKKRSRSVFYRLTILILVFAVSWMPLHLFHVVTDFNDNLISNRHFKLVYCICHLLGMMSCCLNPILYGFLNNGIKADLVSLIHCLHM

B1: Compound A72 (peptide)
peptide: PKPEK([γGlu-γGlu-C20 diacid])PGEDASPKEWNRYYKDLRHYLNWLTRQRF-NH2
modifications: N-terminus assumed
SMILES: CC(C)C[C@H](NC(=O)[C@H](CC(=O)O)NC(=O)[C@H](CCCCN)NC(=O)[C@H](Cc1ccc(O)cc1)NC(=O)[C@H](Cc1ccc(O)cc1)NC(=O)[C@H](CCCNC(=N)N)NC(=O)[C@H](CC(N)=O)NC(=O)[C@H](Cc1c[nH]c2ccccc12)NC(=O)[C@H](CCC(=O)O)NC(=O)[C@H](CCCCN)NC(=O)[C@@H]1CCCN1C(=O)[C@H](CO)NC(=O)[C@H](C)NC(=O)[C@H](CC(=O)O)NC(=O)[C@H](CCC(=O)O)NC(=O)CNC(=O)[C@@H]1CCCN1C(=O)[C@H](CCCCNC(=O)CC[C@H](NC(=O)CC[C@H](NC(=O)CCCCCCCCCCCCCCCCCCC(=O)O)C(=O)O)C(=O)O)NC(=O)[C@H](CCC(=O)O)NC(=O)[C@@H]1CCCN1C(=O)[C@H](CCCCN)NC(=O)[C@@H]1CCCN1)C(=O)N[C@@H](CCCNC(=N)N)C(=O)N[C@@H](Cc1c[nH]cn1)C(=O)N[C@@H](Cc1ccc(O)cc1)C(=O)N[C@@H](CC(C)C)C(=O)N[C@@H](CC(N)=O)C(=O)N[C@@H](Cc1c[nH]c2ccccc12)C(=O)N[C@@H](CC(C)C)C(=O)N[C@H](C(=O)N[C@@H](CCCNC(=N)N)C(=O)N[C@@H](CCC(N)=O)C(=O)N[C@@H](CCCNC(=N)N)C(=O)N[C@@H](Cc1ccccc1)C(N)=O)[C@@H](C)O
B2: Compound A39 (peptide)
peptide: PKPEKPGK([γGlu-γGlu-C19 diacid])DASPKEWERYYKDLRHYLNWLTRQRF-NH2
modifications: lactam 16-20; N-terminus assumed
SMILES: CC(C)C[C@H](NC(=O)[C@H](CC(=O)O)NC(=O)[C@@H]1CCCCNC(=O)CC[C@H](NC(=O)[C@H](Cc2c[nH]c3ccccc23)NC(=O)[C@H](CCC(=O)O)NC(=O)[C@H](CCCCN)NC(=O)[C@@H]2CCCN2C(=O)[C@H](CO)NC(=O)[C@H](C)NC(=O)[C@H](CC(=O)O)NC(=O)[C@H](CCCCNC(=O)CC[C@H](NC(=O)CC[C@H](NC(=O)CCCCCCCCCCCCCCCCCC(=O)O)C(=O)O)C(=O)O)NC(=O)CNC(=O)[C@@H]2CCCN2C(=O)[C@H](CCCCN)NC(=O)[C@H](CCC(=O)O)NC(=O)[C@@H]2CCCN2C(=O)[C@H](CCCCN)NC(=O)[C@@H]2CCCN2)C(=O)N[C@@H](CCCNC(=N)N)C(=O)N[C@@H](Cc2ccc(O)cc2)C(=O)N[C@@H](Cc2ccc(O)cc2)C(=O)N1)C(=O)N[C@@H](CCCNC(=N)N)C(=O)N[C@@H](Cc1c[nH]cn1)C(=O)N[C@@H](Cc1ccc(O)cc1)C(=O)N[C@@H](CC(C)C)C(=O)N[C@@H](CC(N)=O)C(=O)N[C@@H](Cc1c[nH]c2ccccc12)C(=O)N[C@@H](CC(C)C)C(=O)N[C@H](C(=O)N[C@@H](CCCNC(=N)N)C(=O)N[C@@H](CCC(N)=O)C(=O)N[C@@H](CCCNC(=N)N)C(=O)N[C@@H](Cc1ccccc1)C(N)=O)[C@@H](C)O
B3: Compound A14 (peptide)
peptide: PKPEAPGKDASPEEWNRYY[dK]([γGlu-γGlu-C20 diacid])DLRHYLNWLTRQRF-NH2
modifications: N-terminus assumed
SMILES: CC(C)C[C@H](NC(=O)[C@H](Cc1ccc(O)cc1)NC(=O)[C@H](Cc1c[nH]cn1)NC(=O)[C@H](CCCNC(=N)N)NC(=O)[C@H](CC(C)C)NC(=O)[C@H](CC(=O)O)NC(=O)[C@@H](CCCCNC(=O)CC[C@H](NC(=O)CC[C@H](NC(=O)CCCCCCCCCCCCCCCCCCC(=O)O)C(=O)O)C(=O)O)NC(=O)[C@H](Cc1ccc(O)cc1)NC(=O)[C@H](Cc1ccc(O)cc1)NC(=O)[C@H](CCCNC(=N)N)NC(=O)[C@H](CC(N)=O)NC(=O)[C@H](Cc1c[nH]c2ccccc12)NC(=O)[C@H](CCC(=O)O)NC(=O)[C@H](CCC(=O)O)NC(=O)[C@@H]1CCCN1C(=O)[C@H](CO)NC(=O)[C@H](C)NC(=O)[C@H](CC(=O)O)NC(=O)[C@H](CCCCN)NC(=O)CNC(=O)[C@@H]1CCCN1C(=O)[C@H](C)NC(=O)[C@H](CCC(=O)O)NC(=O)[C@@H]1CCCN1C(=O)[C@H](CCCCN)NC(=O)[C@@H]1CCCN1)C(=O)N[C@@H](CC(N)=O)C(=O)N[C@@H](Cc1c[nH]c2ccccc12)C(=O)N[C@@H](CC(C)C)C(=O)N[C@H](C(=O)N[C@@H](CCCNC(=N)N)C(=O)N[C@@H](CCC(N)=O)C(=O)N[C@@H](CCCNC(=N)N)C(=O)N[C@@H](Cc1ccccc1)C(N)=O)[C@@H](C)O

The first assay deals with T1, NPY2R. The assay can be described thus: cell-based or functional assay.
With B1, the “NPY2R pEC50” value is 10.8 -Log(EC50, M).
Turning to B2, the “NPY2R pEC50” value was 10.4 -Log(EC50, M).
On the same count and under the same terms, under PKPEAPGKDASPEEWNRYY[dK]([γGlu-dpeg-dpeg-γGlu-C20 diacid])DLRHYLNWLTRQRF-NH2 [Compound A65] stands 10.2 -Log(EC50, M).

The target of the next assay is NPY1R. Put plainly: cell-based or functional assay.
NPY1R, sequence (P25929 whole entry): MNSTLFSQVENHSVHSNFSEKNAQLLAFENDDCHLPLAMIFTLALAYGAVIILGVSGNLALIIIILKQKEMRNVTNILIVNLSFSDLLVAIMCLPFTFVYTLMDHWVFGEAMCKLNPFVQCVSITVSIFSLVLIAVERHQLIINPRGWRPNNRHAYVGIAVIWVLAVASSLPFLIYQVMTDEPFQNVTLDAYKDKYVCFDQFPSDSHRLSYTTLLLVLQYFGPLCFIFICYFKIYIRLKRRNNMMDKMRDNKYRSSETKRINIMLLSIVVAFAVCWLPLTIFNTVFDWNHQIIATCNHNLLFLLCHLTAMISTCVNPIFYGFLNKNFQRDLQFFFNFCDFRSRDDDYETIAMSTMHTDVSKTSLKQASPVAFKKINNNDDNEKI
Regarding B1, the “NPY1R pEC50” value is 9 -Log(EC50, M).
Still for that read-out and setting: the value for B2 was 9.1 -Log(EC50, M).
The same measure, in the same setting: the value for B3 was 8.5 -Log(EC50, M).
In the case of PKPEAPGKDASPEEWNRYY[dK]([γGlu-dpeg-dpeg-γGlu-C20 diacid])DLRHYLNWLTRQRF-NH2 [Compound A65], the “NPY1R pEC50” value is 8 -Log(EC50, M).

In another assay the target is T2, NPY5R. Put plainly: cell-based or functional assay.
As for B1, the “NPY5R pEC50” value was 8.8 -Log(EC50, M).
The same measure, in the same setting: under B2 stands 8.9 -Log(EC50, M).
On the same count and under the same terms, under B3 stands 8.3 -Log(EC50, M); under PKPEAPGKDASPEEWNRYY[dK]([γGlu-dpeg-dpeg-γGlu-C20 diacid])DLRHYLNWLTRQRF-NH2 [Compound A65], 8.6 -Log(EC50, M).
